Sequences and labels used below:
B1: 001-Hu5 (antibody, V domains shown)
VH: EVQLVESGGGLVQPGGSLRLSCAASGFAFSTYDLSWVRQAPGKGLEWVAYINNGGISTYYSDTVKGRFTISRDNAKNTLYLQMNSLRAEDTAVYYCVRGPFYGSANYFDYWGQGTLVTVSS
VL: DIQMTQSPSSLSASVGDRVTITCRTSESIYSNLPWYQQKPGKSPKLLVYDATKLAEGVPSRFSGSGSGTDYTLTISSLQPEDFATYYCQHFWVTPWTFGQGTKVEIK
notes: Humanized form of #001; also called VH1 + VL4
B2: 001-Hu3 (antibody, V domains shown)
VH: B1 VH
VL: B1 VL with S43A, V48I
notes: Humanized form of #001; also called VH1 + VL3
B3: 001-Hu4 (antibody, V domains shown)
VH: B1 VH with T78S
VL: B1 VL
notes: Humanized form of #001; also called VH2 + VL4
B4: 001-Hu1 (antibody, V domains shown)
VH: B1 VH
VL: B1 VL with S43A, V48L
notes: Humanized form of #001; also called VH1 + VL1
B5: 001-Hu2 (antibody, V domains shown)
VH: B1 VH with T78S
VL: B1 VL with V48I, Y71F
notes: Humanized form of #001; also called VH2 + VL2
B6: 219-Hu3 (antibody, V domains shown)
VH: QVQLVQSGAEVKKPGSSVKVSCKASGYSFTNYWMNWVRQAPGQGLEWMGMIHPSDTETRLNQNFKDRVTITADKSTSTAYMELSSLRSEDTAVYYCARGEGLGAARSVSMDYWGQGTLVTVSS
VL: DIQMTQSPSSLSASVGDRVTITCRASQDISNYLNWYQQKPDGTVKLLIYYTAILHSGVPSRFSGSGSGTDYSLTISSLQPEDFATYFCQQGNTLPWTFGQGTKVEIK
notes: also called VH5 + VL5
B7: 219-Hu2 (antibody, V domains shown)
VH: B6 VH with R67K, V68A
VL: B6 VL
notes: also called VH4 + VL5
B8: 219-Hu1 (antibody, V domains shown)
VH: B6 VH with S16A, G44R, A72R, K74T, T76A
VL: B6 VL
notes: also called VH3 + VL5
B9: 219-Hu5 (antibody, V domains shown)
VH: B6 VH with A72V
VL: B6 VL
notes: also called VH7 + VL5
B10: 219-Hu4 (antibody, V domains shown)
VH: B6 VH with R38K, M48I, R67K, V68A, I70L, A72V
VL: B6 VL
notes: also called VH6 + VL5

Residue numbers refer to the chain shown, from its start.

In the first experiment the target is T1, human TNFR2 on the surface of CHO-TNFR2 cells (human, UniProt P20333 23-461).
T1 construct: whole, on cells
T1 sequence (looked up): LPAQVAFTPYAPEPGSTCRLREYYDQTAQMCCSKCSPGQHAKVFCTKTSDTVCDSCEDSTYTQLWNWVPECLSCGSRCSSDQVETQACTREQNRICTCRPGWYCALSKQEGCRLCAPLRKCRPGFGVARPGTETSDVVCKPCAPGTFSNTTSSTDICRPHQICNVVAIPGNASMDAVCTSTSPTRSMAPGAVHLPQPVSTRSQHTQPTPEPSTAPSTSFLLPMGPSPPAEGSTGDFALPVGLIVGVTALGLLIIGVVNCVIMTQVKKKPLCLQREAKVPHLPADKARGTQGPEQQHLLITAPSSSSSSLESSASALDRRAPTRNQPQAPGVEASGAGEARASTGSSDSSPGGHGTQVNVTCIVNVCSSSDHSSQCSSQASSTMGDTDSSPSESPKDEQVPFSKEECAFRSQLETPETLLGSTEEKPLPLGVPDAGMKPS
Description: flow cytometry on CHO-TNFR2 cells; AUC against 001-WT. The procedure: (§1) The transfected full-length plasmid of human TNFR2 was purchased from Sino Biological (Cat #HG10417-UT, NCBI Ref Seq: NM_001066.2). The experiment was conducted at a cell density within 80%. The cell medium was discarded; the cells were rinsed with PBS, and digested with 1 ml trypsin for 2 minutes; the digestion was stopped with a Ham's F12 complete medium containing 10% FBS, and then a cell suspension was made. The cell suspension was counted, and then an appropriate amount of cell suspension was centrifuged at 350×g; the supernatant was discarded; a corresponding volume of blocking solution (10% FBS+PBS) at a density of 1×10⁷ cells/ml was added to resuspend the cells, and the mixture was incubated at 4° C. for 30 minutes. After the incubation, the mixture was centrifuged at 350×g to remove the supernatant, and the cells were resuspended in a staining buffer (2% FBS+PBS) to a density of 2×10⁶ cells/ml, and spread onto a 96-well plate, with 50 μl of cell suspension added to each well for later use. The antibody was diluted with PBS for 10-fold gradient dilution from the highest concentration of 20 μg/m (twice the concentration); the diluted antibody was added to the well containing 50 μl of cell suspension, and placed on a microplate shaker for shaking at 500 rpm for 1 minute, so that the antibody was fully mixed with the cells; the mixture was incubated at 4° C. for 1 h. After the incubation, the cells were washed twice with the staining buffer, with 100 μl per well, and centrifuged at 350-g for 5 minutes, and the supernatant was discarded. The PE goat anti-Human IgG Fc antibody (ebioscience, Cat #12-4998-82) was diluted 250-fold with the staining buffer, with a volume of 100 μl per well added to the washed cell wells; the mixture was mixed evenly, and stained at 4° C. for 30 minutes. After the staining, similarly, the cells were washed twice with the staining buffer; finally, the cells were resuspended in 200 μl of staining buffer; signals were detected by a flow cytometer (Thermo Attune NxT). The stronger the signal, the stronger the binding ability of an antibody to TNFR2. The binding curve of an antibody was drawn with antibody concentration as the abscissa and corresponding mean fluorescence intensity (MFI) fold as the ordinate, and fitted with four parameters (GraphPad Prism9) to calculate the EC50 value.
In general terms: Flow cytometry measures light scatter and fluorescence of single cells or particles in a stream.
B1: the “% Relative activity (Test antibody/WT antibody)” value came out at 87.8%.
Turning to B2, the “% Relative activity (Test antibody/WT antibody)” value was determined as 87.8%.
On to B3, for which the “% Relative activity (Test antibody/WT antibody)” value stood at 92.2%.
As for B4, the “% Relative activity (Test antibody/WT antibody)” value came out at 93.4%.
On to B5, for which the “% Relative activity (Test antibody/WT antibody)” value stood at 88.2%.

Another experiment addresses T1, human TNFR2 on the surface of CHO-TNFR2 …. Description: flow cytometry on CHO-TNFR2 cells; AUC against 219-WT. The procedure: as §1
Turning to B6, the “% Relative activity (Test antibody/WT antibody)” value is 96.4%.
Consider B7, for which the “% Relative activity (Test antibody/WT antibody)” value was determined as 103%.
Turning to B8, the “% Relative activity (Test antibody/WT antibody)” value worked out at 110%.
Take B9: the “% Relative activity (Test antibody/WT antibody)” value amounted to 93.3%.
In the case of B10, the “% Relative activity (Test antibody/WT antibody)” value was found to be 95.6%.

The next experiment has the same target. Description: flow cytometry on CHO-TNFR2 cells; EC50 against 219-WT. As to the method: as §1
On to B6, for which the “% Relative activity (WT antibody/test antibody)” value is 145%.
On to B7, for which the “% Relative activity (WT antibody/test antibody)” value came out at 97.1%.
For B8, the “% Relative activity (WT antibody/test antibody)” value was determined as 100%.
Regarding B9, the “% Relative activity (WT antibody/test antibody)” value worked out at 147%.
On to B10, for which the “% Relative activity (WT antibody/test antibody)” value worked out at 142%.

The next experiment has as its target T2, human TNFR2 (Novoprotein, Cat #C830) (human, UniProt P20333 23-257, limits assumed).
T2 construct: construct not described; also called human TNFR2 protein
T2 sequence (looked up): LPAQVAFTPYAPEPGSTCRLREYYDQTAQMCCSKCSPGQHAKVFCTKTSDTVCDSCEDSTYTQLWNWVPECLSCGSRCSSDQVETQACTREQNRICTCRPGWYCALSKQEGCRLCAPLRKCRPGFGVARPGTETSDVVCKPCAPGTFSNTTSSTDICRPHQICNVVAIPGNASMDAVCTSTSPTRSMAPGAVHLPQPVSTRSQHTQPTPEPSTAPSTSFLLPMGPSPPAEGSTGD
Description: competition ELISA, competitor human TNFα-Biotin; AUC against 219-WT. As to the method:
1 μg/ml human TNFR2 (Novoprotein, Cat #C830) was pre-coated with 100 μl/well […] in an ELISA plate. All the test TNFR2 antibodies were subjected to 2.5-fold gradient dilution from the highest concentration of 30 μg/ml; the diluted antibodies were mixed with 15 ng/ml human TNFα-Biotin (Acro Biosystem, Cat #TNA-H82E3) in equal volume, respectively; the resulting mixture was added to the ELISA plate at 100 μl/well, and incubated with shaking at room temperature for 2.0 hours. The plate was washed, and then a Streptavidin-HRP working solution (diluted at 1:10000) was added at 100 μl/well, and the mixture was incubated with shaking at room temperature for 40 minutes. The plate was washed again, and then the substrate TMB of HRP was added to develop colour. A stop solution was added to stop the reaction, and then a microplate reader (MD 13) was used to read the absorbance value. The inhibitory curve of an antibody was drawn with antibody concentration as the abscissa and corresponding OD value as the ordinate, and fitted with four parameters (GraphPad Prism9) to calculate the IC50 value. The smaller the IC50 value, the stronger the ability of an antibody to inhibit the binding of human TNFα to human TNFR2. The blocking effect of a humanized antibody was normalized to its corresponding human-murine chimeric antibody WT. The higher the percentage value, the better the inhibitory effect of the humanized antibody.
For B6, the “% Relative activity (WT antibody/test antibody)” value turned out to be 103%.
For B7, the “% Relative activity (WT antibody/test antibody)” value came out at 104%.
As to B8, the “% Relative activity (WT antibody/test antibody)” value amounted to 105%.
Turning to B9, the “% Relative activity (WT antibody/test antibody)” value was 106%.
Turning to B10, the “% Relative activity (WT antibody/test antibody)” value stood at 105%.
